From IntAct's records for PubMed 20453063

Target: chd8_human CHD8 (UniProt Q9HCK8)
UniProt Q9HCK8, sequence (Q9HCK8 whole entry): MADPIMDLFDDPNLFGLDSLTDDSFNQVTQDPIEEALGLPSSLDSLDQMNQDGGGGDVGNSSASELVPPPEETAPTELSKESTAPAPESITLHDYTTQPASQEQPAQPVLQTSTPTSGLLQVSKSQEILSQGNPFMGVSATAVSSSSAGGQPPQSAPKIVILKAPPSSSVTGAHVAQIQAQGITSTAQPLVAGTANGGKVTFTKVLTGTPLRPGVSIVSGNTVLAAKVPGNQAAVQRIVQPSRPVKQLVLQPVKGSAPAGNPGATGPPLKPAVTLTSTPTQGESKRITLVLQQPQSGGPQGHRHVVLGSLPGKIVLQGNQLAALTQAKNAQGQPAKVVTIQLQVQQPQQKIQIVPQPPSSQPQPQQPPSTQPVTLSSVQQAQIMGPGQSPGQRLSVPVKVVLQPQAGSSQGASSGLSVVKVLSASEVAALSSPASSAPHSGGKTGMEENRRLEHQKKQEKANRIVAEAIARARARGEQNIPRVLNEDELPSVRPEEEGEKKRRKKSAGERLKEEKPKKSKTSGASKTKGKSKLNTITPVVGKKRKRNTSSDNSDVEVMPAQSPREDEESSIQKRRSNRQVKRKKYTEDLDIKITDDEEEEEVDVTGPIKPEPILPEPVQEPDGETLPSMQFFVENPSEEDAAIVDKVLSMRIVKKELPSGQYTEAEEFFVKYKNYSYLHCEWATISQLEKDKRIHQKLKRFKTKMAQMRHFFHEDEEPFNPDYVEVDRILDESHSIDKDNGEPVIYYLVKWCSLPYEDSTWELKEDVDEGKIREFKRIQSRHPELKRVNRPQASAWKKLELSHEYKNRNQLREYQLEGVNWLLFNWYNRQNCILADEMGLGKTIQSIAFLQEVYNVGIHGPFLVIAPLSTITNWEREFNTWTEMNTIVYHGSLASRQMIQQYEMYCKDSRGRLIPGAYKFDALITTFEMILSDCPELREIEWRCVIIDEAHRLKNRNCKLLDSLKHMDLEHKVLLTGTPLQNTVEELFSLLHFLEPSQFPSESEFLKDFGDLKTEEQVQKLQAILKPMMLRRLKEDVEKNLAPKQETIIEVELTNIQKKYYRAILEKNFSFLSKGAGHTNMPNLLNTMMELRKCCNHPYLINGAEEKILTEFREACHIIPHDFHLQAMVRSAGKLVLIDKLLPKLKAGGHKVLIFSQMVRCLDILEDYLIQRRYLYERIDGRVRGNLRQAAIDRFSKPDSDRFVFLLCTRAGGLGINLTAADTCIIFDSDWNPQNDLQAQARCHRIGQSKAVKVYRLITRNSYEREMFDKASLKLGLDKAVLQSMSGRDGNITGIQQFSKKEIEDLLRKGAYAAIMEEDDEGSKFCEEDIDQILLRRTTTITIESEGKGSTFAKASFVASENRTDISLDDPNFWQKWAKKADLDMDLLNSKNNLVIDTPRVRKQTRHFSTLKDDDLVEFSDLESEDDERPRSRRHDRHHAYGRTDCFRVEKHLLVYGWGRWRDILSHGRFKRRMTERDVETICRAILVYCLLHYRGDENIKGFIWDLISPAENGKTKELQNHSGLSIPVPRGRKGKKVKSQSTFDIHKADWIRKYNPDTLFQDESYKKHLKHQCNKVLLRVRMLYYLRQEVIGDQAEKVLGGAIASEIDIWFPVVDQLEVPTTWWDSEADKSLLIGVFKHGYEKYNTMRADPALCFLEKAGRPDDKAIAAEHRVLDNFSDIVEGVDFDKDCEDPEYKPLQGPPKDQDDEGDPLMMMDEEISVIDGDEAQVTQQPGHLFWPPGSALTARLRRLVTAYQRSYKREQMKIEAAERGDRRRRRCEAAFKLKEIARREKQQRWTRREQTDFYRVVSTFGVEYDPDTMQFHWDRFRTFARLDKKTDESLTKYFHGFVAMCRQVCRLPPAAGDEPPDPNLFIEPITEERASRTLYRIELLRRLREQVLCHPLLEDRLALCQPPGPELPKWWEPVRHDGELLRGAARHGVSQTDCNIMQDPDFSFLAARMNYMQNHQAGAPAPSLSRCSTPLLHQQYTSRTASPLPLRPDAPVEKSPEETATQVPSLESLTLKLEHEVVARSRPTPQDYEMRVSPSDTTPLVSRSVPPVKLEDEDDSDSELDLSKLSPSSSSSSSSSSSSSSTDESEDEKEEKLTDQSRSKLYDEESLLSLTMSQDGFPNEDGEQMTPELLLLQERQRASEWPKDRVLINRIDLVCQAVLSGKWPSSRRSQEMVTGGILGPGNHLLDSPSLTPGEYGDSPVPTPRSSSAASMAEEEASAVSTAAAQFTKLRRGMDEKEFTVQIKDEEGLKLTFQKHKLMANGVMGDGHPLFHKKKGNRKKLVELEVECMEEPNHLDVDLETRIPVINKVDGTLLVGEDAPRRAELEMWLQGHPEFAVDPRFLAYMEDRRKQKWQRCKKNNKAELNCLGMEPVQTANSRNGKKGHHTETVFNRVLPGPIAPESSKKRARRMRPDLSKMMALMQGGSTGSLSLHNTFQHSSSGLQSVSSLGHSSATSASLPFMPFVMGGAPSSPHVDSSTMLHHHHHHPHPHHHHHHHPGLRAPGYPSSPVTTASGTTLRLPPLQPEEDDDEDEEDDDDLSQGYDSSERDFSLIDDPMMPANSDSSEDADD

Row | effect of a mutation on the interaction | Substance
1 | disrupting interaction | Chromodomain-helicase-DNA-binding protein 7 (Homo sapiens), Q9P2D1 H2096R
2 | disrupting interaction | Chromodomain-helicase-DNA-binding protein 7 (Homo sapiens), Q9P2D1 G2108R
3 | disrupting interaction | Chromodomain-helicase-DNA-binding protein 7 (Homo sapiens), Q9P2D1 W2091R
